Experimental data taken from paper PMC11176775.

Legend:
[1] = target: Apurinic/apyrimidinic-endonuclease 1 (UniProt P27695); assay: SPR; Biacore X-100, 25 °C; GST-tag polβ or APE1 immobilised on CM5 chip (EDC/NHS, 10 mM sodium acetate pH 4.0), his-tag LIG1 or LIGIIIα proteins as analytes; 10 mM Hepes pH 7.4, 150 mM NaCl, 3 mM EDTA, 0.005% P20; 1:1 (Langmuir) model; polβ truncated mutants (Fig. S2) tested likewise, orientation not given
[2] = target: GST-tag DNA polymerase β, full-length (1–335 amino acids) (UniProt P06746); assay: as above
[3] = target: Polβ C-terminal (92–335 amino acids) (UniProt P06746); assay: as above
[4] = target: Polβ N-terminal (1–92 amino acids) (UniProt P06746); assay: as above
[5] = target: Polβ C-terminal (92–335 amino acids), as used in SPR (UniProt P06746); assay: SPR; Supplementary Figures 2 and 3; partner immobilised on the CM5 chip not given; Biacore X-100, 25 °C; 10 mM Hepes pH 7.4, 150 mM NaCl, 3 mM EDTA, 0.005% surfactant P20; 1:1 (Langmuir) fit
[6] = target: GST-tag APE1 full-length (apurinic/apyrimidinic-endonuclease 1) (UniProt P27695); assay: SPR; GST-tag polβ or APE1 immobilised on CM5 chip (EDC/NHS), his-tag LIG1 or LIGIIIα passed as analyte; Biacore X-100, 25 °C; 10 mM Hepes pH 7.4, 150 mM NaCl, 3 mM EDTA, 0.005% surfactant P20; 1:1 (Langmuir) fit
[7] = target: GST-tag polβ full-length (DNA polymerase β, 1–335 amino acids) (UniProt P06746); assay: as above
[8] = target: GST-tag polβ full-length (DNA polymerase β, 1–335 amino acids) (UniProt P06746); assay: SPR; Supplementary Figures 2 and 3; partner immobilised on the CM5 chip not given; Biacore X-100, 25 °C; 10 mM Hepes pH 7.4, 150 mM NaCl, 3 mM EDTA, 0.005% surfactant P20; 1:1 (Langmuir) fit
[9] = target: His-tag LIGIIIα full-length (DNA ligase IIIα, 1–922 amino acids); assay: as above

Sequence of Apurinic/apyrimidinic-endonuclease 1 (P27695 whole entry, the tested form may be a part): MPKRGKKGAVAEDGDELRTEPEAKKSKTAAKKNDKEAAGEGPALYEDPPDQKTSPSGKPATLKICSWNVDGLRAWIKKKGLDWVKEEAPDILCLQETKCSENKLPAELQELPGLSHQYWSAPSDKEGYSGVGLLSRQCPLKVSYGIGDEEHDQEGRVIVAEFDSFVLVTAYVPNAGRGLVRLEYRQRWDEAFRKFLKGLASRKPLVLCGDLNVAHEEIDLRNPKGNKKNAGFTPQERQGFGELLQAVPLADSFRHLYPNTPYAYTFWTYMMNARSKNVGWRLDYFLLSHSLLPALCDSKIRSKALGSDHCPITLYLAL
Sequence of GST-tag APE1 full-length (apurinic/apyrimidinic-endonuclease 1) (P27695 whole entry, the tested form may be a part): as above
Sequence of poly (ADP-ribose) polymerase 1 (PARP1), his-tag (P09874 whole entry): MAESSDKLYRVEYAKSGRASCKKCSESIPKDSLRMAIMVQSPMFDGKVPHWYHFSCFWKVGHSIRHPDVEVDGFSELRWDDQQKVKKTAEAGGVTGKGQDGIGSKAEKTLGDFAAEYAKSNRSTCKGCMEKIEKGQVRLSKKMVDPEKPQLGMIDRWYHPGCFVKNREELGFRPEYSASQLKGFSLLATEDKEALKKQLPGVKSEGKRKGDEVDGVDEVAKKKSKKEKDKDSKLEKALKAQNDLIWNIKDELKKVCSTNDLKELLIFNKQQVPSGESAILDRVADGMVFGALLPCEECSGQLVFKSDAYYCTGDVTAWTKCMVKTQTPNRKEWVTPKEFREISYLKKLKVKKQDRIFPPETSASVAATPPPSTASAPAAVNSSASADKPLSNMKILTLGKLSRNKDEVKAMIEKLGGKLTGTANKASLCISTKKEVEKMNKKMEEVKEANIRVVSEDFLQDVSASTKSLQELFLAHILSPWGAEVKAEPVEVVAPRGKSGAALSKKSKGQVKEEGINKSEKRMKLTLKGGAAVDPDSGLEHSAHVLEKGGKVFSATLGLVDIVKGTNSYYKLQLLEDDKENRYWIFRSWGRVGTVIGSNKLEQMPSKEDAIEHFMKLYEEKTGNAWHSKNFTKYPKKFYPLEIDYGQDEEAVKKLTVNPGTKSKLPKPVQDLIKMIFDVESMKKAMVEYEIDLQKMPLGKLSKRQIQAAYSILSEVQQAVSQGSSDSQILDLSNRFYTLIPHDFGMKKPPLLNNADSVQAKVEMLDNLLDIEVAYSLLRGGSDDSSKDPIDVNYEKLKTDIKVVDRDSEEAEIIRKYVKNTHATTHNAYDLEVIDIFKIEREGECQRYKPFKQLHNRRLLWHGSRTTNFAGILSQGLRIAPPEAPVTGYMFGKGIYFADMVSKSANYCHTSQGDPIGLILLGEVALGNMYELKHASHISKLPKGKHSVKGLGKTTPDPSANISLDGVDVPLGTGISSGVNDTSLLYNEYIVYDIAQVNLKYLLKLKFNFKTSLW
Sequence of X-ray repair crosscomplementing protein 1 (XRCC1), his-tag (P18887 whole entry): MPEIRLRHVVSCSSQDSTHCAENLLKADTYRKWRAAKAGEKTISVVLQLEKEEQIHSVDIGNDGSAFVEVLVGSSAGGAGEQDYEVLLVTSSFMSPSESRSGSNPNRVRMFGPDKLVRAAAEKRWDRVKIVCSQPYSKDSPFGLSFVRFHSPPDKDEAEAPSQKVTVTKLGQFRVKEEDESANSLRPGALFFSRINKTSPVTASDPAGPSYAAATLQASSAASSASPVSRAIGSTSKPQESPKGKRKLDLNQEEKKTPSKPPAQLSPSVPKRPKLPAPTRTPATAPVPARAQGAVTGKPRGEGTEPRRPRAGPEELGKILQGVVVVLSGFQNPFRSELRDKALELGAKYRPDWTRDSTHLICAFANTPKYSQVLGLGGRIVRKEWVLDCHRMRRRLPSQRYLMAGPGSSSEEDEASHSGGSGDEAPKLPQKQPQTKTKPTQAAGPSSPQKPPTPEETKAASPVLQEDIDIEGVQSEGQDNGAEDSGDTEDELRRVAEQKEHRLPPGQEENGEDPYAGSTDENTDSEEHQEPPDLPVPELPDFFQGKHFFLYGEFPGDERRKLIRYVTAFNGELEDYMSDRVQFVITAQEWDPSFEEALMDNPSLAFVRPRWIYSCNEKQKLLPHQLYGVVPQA

DNA ligase IIIα full-length (1–922 amino acids) (enzyme)
Kd [1]: 3.3 nM | Kd [2]: 7 nM | fold reduction of binding against the full-length proteins [3]: 500 fold | Kd [4]: 32 nM

His-tag LIG1 full-length (DNA ligase 1, 1–919 amino acids) (from UniProt P18858 1-919) (enzyme)
Kd [5]: 740 nM

His-tag LIGIIIα full-length (DNA ligase IIIα, 1–922 amino acids) (enzyme)
Kd [5]: 500 nM

LIGIIIα△BRCT (1–755 amino acids), LIGIIIα lacking the BRCT domain (domain or fragment)
Kd [6]: 1050 nM

LIGIIIα△ZnF (170–922 amino acids), LIGIIIα lacking the zinc-finger domain (domain or fragment)
Kd [6]: 4.9 nM | Kd [7]: 27 nM

LIGIIIα▵BRCT (1–755 amino acids) (domain or fragment)
fold difference in KD against LIGIIIα▵ZnF [1]: 1000 fold | Kd [2]: 520 nM

LIGIIIα▵ZnF (170–922 amino acids) (domain or fragment)
Kd [2]: 30 nM

X-ray repair crosscomplementing protein 1 (XRCC1), his-tag (from UniProt P18887 1-633) (natural protein; other documents disagree on this pair)
Kd [8]: 10 nM

poly (ADP-ribose) polymerase 1 (PARP1), his-tag (from UniProt P09874 1-1014) (enzyme)
Kd [9]: 20 nM
